Assay results as given in patent publication US20230338477A1 (published 2023).
Residue numbers refer to the chain shown, from its start.

B1: 12839B (antibody, V domains shown)
VH: QVQLVESGGGVVQPGRSLRLSCAASGFPFSNYVMYWVRQAPGKGLEWVALIFFDGKKNYHADSVKGRFTITRDNSKNMLYLQMNSLRPEDAAVYYCAKIHCPNGVCYKGYYGMDVWGQGTTVTVSS
VL: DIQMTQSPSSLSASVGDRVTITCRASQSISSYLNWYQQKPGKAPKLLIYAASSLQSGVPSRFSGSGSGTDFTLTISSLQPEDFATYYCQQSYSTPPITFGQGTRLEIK
notes: Anti-hTfR antibody of the initial screen; only variable domains are tied to it
B2: 12834B (antibody, V domains shown)
VH: QVQLVQSGAEVKKPGASVKVSCKASGYTFTSYGISWVRQAPGQGLEWMGWISVYHGNTNYAQKFQGRVTMTTDTSTSTAYMELRSLRSDDTAVYYCAREGYYDFWSGYYPFDYWGQGTLVTVSS
VL: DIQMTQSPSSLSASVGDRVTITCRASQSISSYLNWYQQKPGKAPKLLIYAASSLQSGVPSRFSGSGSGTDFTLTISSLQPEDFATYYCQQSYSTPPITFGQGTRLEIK
notes: as for B1
B3: 12843B (antibody, V domains shown)
VH: EVQLVESGGGLVQPGGSLRLSCAASGFTFNIFEMNWVRQAPGKGLEWISYISSRGTTTYYADSVRGRFTISRDNAKNSLYLQMNSLRAEDTAVYYCARDYEATIPFDFWGQGTLVTVSS
VL: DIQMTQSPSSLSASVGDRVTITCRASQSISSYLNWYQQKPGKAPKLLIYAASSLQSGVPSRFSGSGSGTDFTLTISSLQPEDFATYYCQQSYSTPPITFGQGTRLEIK
notes: as for B1
B4: 12841B (antibody, V domains shown)
VH: EVQLVESGGGLVQPGGSLRLSCAASGFTFSNYWMNWVRQAPGKGLEWVANIKEDGGKKLYVDSVKGRFTISRDNAKNSLFLQMNSLRAEDTAVYYCAREDTTLVVDYYYYGMDVWGQGTTVTVSS
VL: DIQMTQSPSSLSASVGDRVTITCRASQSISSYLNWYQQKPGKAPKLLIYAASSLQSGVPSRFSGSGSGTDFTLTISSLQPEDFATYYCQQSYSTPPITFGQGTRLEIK
notes: as for B1
B5: 12816B (antibody, V domains shown)
VH: QVQLVESGGGLVKPGGSLRLSCAASGFTFSDYYMNWIRQAPGKGLEWVSYISSSGTTIYYADSVKGRFTISRDNAKKSLYLEMNSLRAEDTAVYYCAREGYGNDYYYYGIDVWGQGTTVTVSS
VL: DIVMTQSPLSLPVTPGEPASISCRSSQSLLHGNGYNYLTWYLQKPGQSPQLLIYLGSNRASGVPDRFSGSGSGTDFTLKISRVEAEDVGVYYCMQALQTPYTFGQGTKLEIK
notes: as for B1
B6: 69261 (antibody, V domains shown)
VH: B5 VH with D31V, T56S, K77N, E82Q, A97G, G102S, N103G, D104T, Y106S, I110M
VL: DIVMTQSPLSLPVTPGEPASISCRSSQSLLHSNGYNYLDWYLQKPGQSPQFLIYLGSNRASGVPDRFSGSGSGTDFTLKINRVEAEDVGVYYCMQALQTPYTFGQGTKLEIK
notes: as for B1
B7: 31874B (antibody, V domains shown)
VH: EVQLVESGGGLVQPGGSLRLSCAASGFAFSSYAMTWVRQAPGKGLEWVSVISGTGGSTYYADSVKGRFTISRDNSKNTLYLQMNSLRAEDTAVYYCAKGGAARRMEYFQYWGQGTLVTVSS
VL: DIQMTQSPSSLSASVGDRVTITCRASQGISNYLAWYQQKPGKVPNLLIYAASTLQSGVPSRFSGSGSGTDFTLTISSLQPEDVATYYCQKYNSAPLTFGGGTKVEIK
notes: as for B1
B8: 31863B (antibody, V domains shown)
VH: EVQLVESGGGLVQPGGSLRLSCAASGFTFNSYAMTWVRQAPGKGLEWVSFIGGSTGNTYYAGSVKGRFTISSDNSKKTLYLQMNSLRAEDTAVYYCAKGGAARRMEYFQHWGQGTLVTVSS
VL: B7 VL with V15I, N45K, K90N, Y91H, A94V
notes: as for B1
B9: 69263 (antibody, V domains shown)
VH: EVQLVESGGGLVQPGRSLRLSCAVSGFTFDDYAMHWVRQAPGKGLEWVSGISWNSGTRGYADSVKGRFTISRDNAKNSLYLQMNSLRGEDTALYYCVKDITISPNYYGMDVWGQGTTVTVSS
VL: B7 VL with G28D, N31H, L33S, V43L, T72S, I75T, A94V
notes: as for B1
B10: 12847B (antibody, V domains shown)
VH: EVQLVESGGGLVQPGRSLRLSCAASGFTFDDYAMNWVRQAPGKGLEWVSGISWSSGSMDYADSVKGRFTISRDNAKNSLYLQMNSLRTEDTALYYCAKAREVGDYYGMDVWGQGTTVTVSS
VL: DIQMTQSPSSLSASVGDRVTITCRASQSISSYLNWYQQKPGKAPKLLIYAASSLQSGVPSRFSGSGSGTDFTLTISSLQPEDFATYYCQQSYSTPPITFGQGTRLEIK
notes: as for B1
B11: 12795B (antibody, V domains shown)
VH: EVQLVESGGGLVQPGGSLRLSCATSGFTFTSYDMKWVRQAPGLGLEWVSAISGSGGNTYYADSVKGRFTISRDNSRNTLYLQMNSLRAEDTAVYYCTRSHDFGAFDYFDYWGQGTLVTVSS
VL: DIQMTQSPSSLSASVGDRVTITCRASQGIRDHFGWYQQKPGKAPKRLIYAASSLHSGVPSRFSGSGSGTEFTLTISSLQPEDFATYYCLQYDTYPLTFGGGTKVEIK
notes: as for B1
B12: 12801B (antibody, V domains shown)
VH: EVQLLESGGALVQPGGSLRLSCAASGFTFTSYAMHWVRQAPGKGLEWVSSIRGSGGGTYSADSVKGRFTISRDNSRDTLYLQMNSVRAEDTAVYYCARSHDYGAFDFFDYWGQGTLVTVSS
VL: B11 VL with D31T, H32D, F33L, H55Q, Q79R, Y86F, D92N, T93S
notes: as for B1
B13: 12850B (antibody, V domains shown)
VH: QVQLVQSGAEVKKPGSSVKVSCKASGGTFNTYAITWVRQAPGQGLEWMGGIIPISGIAEYAQKFQGRVTITTDDSSTTAYMELNSLRSEDTAVYYCASWNYALYYFYGMDVWGRGTTVTVSS
VL: not shown
notes: as for B1
B14: 69305 (antibody, V domains shown)
VH: QVQLVESGGGVVQPGRSLRLSCAASGFTFSSYGMHWVRQAPGKGLEWVAVIWYDGSNKYYADSVKGRFTISRDISKNTLYLQMNSLRAEDTAVYYCAGQLDLFFDYWGQGTLVTVSS
VL: DIQMTQSPSSLSASVGDRVTITCRASQSIDRYLNWYRQKPGKAPKLLIYTTSSLQSGVPSRFSGSGSGTDFTLTLSSLQPEDFATYYCQQSYSPPLTFGGGTKVEIK
notes: as for B1
B15: 12844B (antibody, V domains shown)
VH: EVQLVESGGSVVRPGGSLRLSCEASGFTFDDYGMSWVRQDPGKGLEWVSGINWNGDRTNYADSVKGRFIISRDNAKNSVYLQMNSLRAEDSALYHCARDQGLGVAATLDYWGQGTLVTVSS
VL: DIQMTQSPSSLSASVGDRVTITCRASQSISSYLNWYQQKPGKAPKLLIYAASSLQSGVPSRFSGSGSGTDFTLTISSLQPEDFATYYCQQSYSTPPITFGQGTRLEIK
notes: as for B1
B16: 12798B (antibody, V domains shown)
VH: EVQLVESGGDLVQPGRSLRLSCAASGFTFDDYAMHWVRQAPGKGLEWVSGISWNSATRVYADSVKGRFTISRDNAKNFLYLQMNSLRSEDTALYHCAKDMDISLGYYGLDVWGQGTTVTVSS
VL: not shown
notes: as for B1
B17: 69329 (antibody, V domains shown)
VH: EVQLVESGGGLVQPGGSLRLSCAASGFTFSNYWMTWVRQAPGKGLEWVANIKEDGSEKDYVDSVKGRFTISRDNAKNSLYLQMNSLRGEDTAVYYCARDGEQLVDYYYYYVMDVWGQGTTVTVSS
VL: DIQMTQSPSSVSASVGDRVTITCRASQGISSWLAWYQQKPGKAPKLLIYAASSLQSGVPSRFSGSGSGTDFTLTISSLQPEDFATYYCQKANSFPYTFGQGTKLEIK
notes: as for B1
B18: 12812B (antibody, V domains shown)
VH: QVQLVQSGAEVKKPGSSVRVSCKASRGTFSSYAISWVRQAPGQGLEWMGGIIPIFGTANYAQKFLARVTITADESTSTAYMELSSLRSEDTAVYYCAREKGWNYFDYWGQGTLVTVSS
VL: B17 VL with S9P, K90Q, Y96R, L104V
notes: as for B1
B19: 12799B (antibody, V domains shown)
VH: QITLKESGPTLVKPTQTLTLTCTFSGFSLSTSGVGVVWIRQPPGKALEWLALIYWNDHKRYSPSLGSRLTITKDTSKNQVVLTMTNMDPVDTATYYCAHYSGSYSYYYYGLDVWGQGTTVTVSS
VL: B17 VL with S30A, K45E, S56G, T85I, K90Q, S93Y, Y96W, L104V
notes: as for B1
B20: 69307 (antibody, V domains shown)
VH: B17 VH with A23T, D59E
VL: B17 VL with N92D, F94L, T97A
notes: as for B1
B21: 12808B (antibody, V domains shown)
VH: QLQLQESGPGLVKPSETLSLTCTVSGESISSNTYYWGWIRQPPGKGLEWIGSIDYSGTTNYNPSLKSRVTISVDTSRNHFSLRLRSVTAADTAVYYCAREWGNYGYYYGMDVWGQGTTVTVSS
VL: DIQMTQSPSSLSASVGDRVTINCRASQGIRNDLGWYQQKPGKAPKRLIYAASSLQSGVPLRFSGSGSGTEFTLTINNLQPEDFATYYCLSHNSYPWTFGQGTKVEIK
notes: as for B1
B22: 12802B (antibody, V domains shown)
VH: QVQLVESGGGLVKPGGSLRLSCAASGFTFSDYFMSWIRQAPGKGLEWVSYISSTGSTINYADSVKGRFTISRDNVKNSLYLQMTSLRVEDTAVYYCTRDNWNYEYWGQGTLVTVSS
VL: EIVMTQSPATLSVSPGERATLSCRASQSVSINLAWYQQKPGQAPRLLIFVASTRATGIPARFSGSGSGTEFTLTISSLQSEDFATYYCQQYDIWPYTFGQGTKLEIK
notes: as for B1
B23: 69323 (antibody, V domains shown)
VH: EVQLVESGGGLVQPGRSLRLSCAASGFTFDDYAMHWVRQAPGKGLEWVSGISWNSGYIGYADSVKGRFTISRDNAENSLHLQMNSLRAEDTALYYCARGGSTLVRGVKGGYYGMDVWGQGTTVTVSS
VL: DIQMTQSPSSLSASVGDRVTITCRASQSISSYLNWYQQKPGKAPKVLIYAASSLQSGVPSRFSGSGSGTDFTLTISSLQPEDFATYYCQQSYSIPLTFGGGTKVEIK
notes: as for B1
B24: 12835B (antibody, V domains shown)
VH: EVQLVESGGGLIQPGGSLRLSCEASGFTFRNYEMNWVRQAPGKGLEWVSYISSSGNMKDYAESVKGRFTISRDNVKNSLQLQMNSLRVEDTAVYYCARDEFPYGMDVWGQGTTVTVSS
VL: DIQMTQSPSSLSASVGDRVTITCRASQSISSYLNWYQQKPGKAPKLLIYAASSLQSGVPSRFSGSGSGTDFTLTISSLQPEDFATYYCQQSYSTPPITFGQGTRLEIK
notes: as for B1
B25: 12845B (antibody, V domains shown)
VH: EVQLVESGGGLVQPGGSLRLSCAASGFTVSNYEMNWVRQAPGKGLEWVSYISSSTSNIYYADSVKGRFTISRDNAENSLYLQMNSLRVEDTAVYYCVRDGIVVVPVGRGYYYYGLDVWGQGTTVTVSS
VL: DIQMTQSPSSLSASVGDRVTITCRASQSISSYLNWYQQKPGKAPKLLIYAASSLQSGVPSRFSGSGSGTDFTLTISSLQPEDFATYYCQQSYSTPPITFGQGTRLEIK
notes: as for B1
B26: 12833B (antibody, V domains shown)
VH: QVQLVESGGGVVQPGRSLRLSCAASGFTFSSFGMHWVRQAPGKGLEWVIFISYDGSDKYYADSVKGRFAISRDSSKNTLYLQMNSLRAEDTAVYYCAKENGILTDSYGMDVWGQGTTVTVSS
VL: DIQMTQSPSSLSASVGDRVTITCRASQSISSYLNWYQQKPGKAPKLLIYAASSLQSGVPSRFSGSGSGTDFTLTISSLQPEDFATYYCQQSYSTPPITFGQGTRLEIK
notes: as for B1
B27: 12848B (antibody, V domains shown)
VH: EVQLVESGGGLVQPGRSLTLSCAASGFTFDNFGMHWVRQGPGKGLEWVSGLTWNSGVIGYADSVKGRFTISRDNAKNSLYLQMNSLRPEDTALYYCAKDIRNYGPFDYWGQGTLVTVSS
VL: not shown
notes: as for B1

Target: T1, human transferrin receptor 1 (hTfR) (human, UniProt P02786 89-760, limits assumed)
T1 construct: also called TFRC; transferrin receptor protein 1
Experiment: in vitro binding screen, method not described

T1 sequence (P02786 89-760 limits assumed): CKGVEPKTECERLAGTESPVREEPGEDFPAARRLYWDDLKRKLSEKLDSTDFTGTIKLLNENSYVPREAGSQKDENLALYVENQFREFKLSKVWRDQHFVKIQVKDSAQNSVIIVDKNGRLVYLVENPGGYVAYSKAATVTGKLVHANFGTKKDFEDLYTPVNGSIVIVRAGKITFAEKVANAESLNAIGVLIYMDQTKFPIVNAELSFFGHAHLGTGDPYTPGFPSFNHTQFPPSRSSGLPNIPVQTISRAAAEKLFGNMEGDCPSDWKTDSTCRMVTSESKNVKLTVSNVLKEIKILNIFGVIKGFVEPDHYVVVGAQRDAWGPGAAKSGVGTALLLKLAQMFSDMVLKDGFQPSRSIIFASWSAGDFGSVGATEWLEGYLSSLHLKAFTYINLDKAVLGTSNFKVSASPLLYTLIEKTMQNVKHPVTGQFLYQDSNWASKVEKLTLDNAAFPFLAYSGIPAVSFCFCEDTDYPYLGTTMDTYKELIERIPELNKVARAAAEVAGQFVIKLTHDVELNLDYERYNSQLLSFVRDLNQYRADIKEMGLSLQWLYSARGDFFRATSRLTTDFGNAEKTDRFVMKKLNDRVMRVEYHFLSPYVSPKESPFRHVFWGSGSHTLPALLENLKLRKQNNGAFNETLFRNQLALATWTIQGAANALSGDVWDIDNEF

Binding result, binds:
B1
B2
B3
B4
B5
B6
B7
B8
B9
B10
B11
B12
B13
B14
B15
B16
B17
B18
B19
B20
B21
B22
B23
B24
B25
B26
B27
